Molecular target: recombinant TdfH (Neisseria gonorrhoeae TonB-dependent transporter, NGO0952) (Neisseria gonorrhoeae)
Assay: ITC; Nano ITC, 25°C, 1x PBS with 0.05% DDM; TdfH (300 μl, 20 μM) in the cell, CP sample (200 μM) in 20 injections of 2.5 μl; fitted with NanoAnalyze to a two-state (multisite) model, TKO to a single-site model

Substance: mouse calprotectin (heterodimer of mouse S100A8 and S100A9) (from UniProt P27005 1-89; P31725 1-113) (complex)
- KD, higher affinity (two-state model): 0.72 µM
- KD, lower affinity (two-state model): 51 µM
